Biological target: MERS-CoV spike glycoprotein ectodomain (EMC strain, spike residues 1-1290), trimer (MERS-CoV (EMC strain)) (UniProt K0BRG7)
Assay: cryo-EM structure

MERS-CoV spike glycoprotein ectodomain (EMC strain, spike residues 1-1290), trimer (from UniProt K0BRG7 18-1290) (domain or fragment)
stoichiometry N: 3
